Measurements taken from publication PMC8062120, “Molecular basis of F-actin regulation and sarcomere assembly via myotilin” (PLoS Biology, 2021).

T1: Full-length myotilin with N-terminal thioredoxin tag (Trx-MYOT) (human, UniProt Q9UBF9 1-498)
T1 construct: myotilin, human, full length; source: E. coli B834 (DE3), purified (HisTrap FF, SEC); not shown: Trx, N-terminal, kept
T1 sequence (looked up): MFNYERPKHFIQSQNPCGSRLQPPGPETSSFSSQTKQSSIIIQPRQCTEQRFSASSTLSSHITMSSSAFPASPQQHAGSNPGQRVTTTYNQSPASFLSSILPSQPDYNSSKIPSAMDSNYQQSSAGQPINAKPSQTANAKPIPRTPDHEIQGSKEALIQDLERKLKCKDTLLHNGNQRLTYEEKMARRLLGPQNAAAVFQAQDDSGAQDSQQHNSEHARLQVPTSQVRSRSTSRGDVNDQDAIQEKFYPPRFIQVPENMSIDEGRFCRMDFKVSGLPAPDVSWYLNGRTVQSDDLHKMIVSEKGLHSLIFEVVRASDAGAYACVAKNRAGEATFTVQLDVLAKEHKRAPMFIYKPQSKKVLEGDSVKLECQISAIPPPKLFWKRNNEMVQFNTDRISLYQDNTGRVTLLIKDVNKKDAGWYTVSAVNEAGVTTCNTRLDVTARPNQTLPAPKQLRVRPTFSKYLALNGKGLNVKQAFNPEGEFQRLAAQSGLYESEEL


What was measured:
[1] = target: F-actin (rabbit skeletal muscle actin, polymerized) (rabbit, UniProt P68135 1-377); assay: co-sedimentation; F-actin co-sedimentation, conditions B2 (PIPES pH 6.8, 100 mM NaCl); fixed 6 μM myotilin fragment in 20 μl mixed with pre-polymerized F-actin (0 to 60 μM) in 20 μl; one site-specific binding fit; apparent Kd; conditions: both partners purified
[2] = target: the molecule itself; assay: SAXS; batch SAXS at high or comparable concentrations; Ig1Ig2^250–444 up to 14.12 mg/ml, Ig1Ig2^250–498 up to 42.8 mg/ml, Ig1Ig2^220–452 up to 52 or 36.6 mg/ml, R405K up to 45.5 mg/ml; 20 mM HEPES, 150 mM NaCl, 5% glycerol, 1 mM DTT, pH 7.4 (one 220–452 set in 20 mM MES, 200 mM NaCl, pH 6.0); mass from I0, Rg, Dmax, P(r); monomer to dimer
[3] = target: T1, Full-length myotilin with N-terminal …; assay: ITC; 25°C; 400 μM ACTN2-EF14 injected into the cell with 20 μM Trx-MYOT or Trx-MYOT-NEECK; 20 mM Hepes, 400 mM NaCl, 250 mM arginine, 5% glycerol, pH 7.5; conditions: both partners purified

Kd [1] [nM]	Binder	other results
2000 ± 400	Myotilin Ig1Ig2^185–498 (domain or fragment, source: E. coli C41 (DE3), purified (HisTrap FF, HRV-3C cleavage, StrepTrap HP, SEC)) MARRLLGPQNAAAVFQAQDDSGAQDSQQHNSEHARLQVPTSQVRSRSTSRGDVNDQDAIQEKFYPPRFIQVPENMSIDEGRFCRMDFKVSGLPAPDVSWYLNGRTVQSDDLHKMIVSEKGLHSLIFEVVRASDAGAYACVAKNRAGEATFTVQLDVLAKEHKRAPMFIYKPQSKKVLEGDSVKLECQISAIPPPKLFWKRNNEMVQFNTDRISLYQDNTGRVTLLIKDVNKKDAGWYTVSAVNEAGVTTCNTRLDVTARPNQTLPAPKQLRVRPTFSKYLALNGKGLNVKQAFNPEGEFQRLAAQSGLYESEEL	–
3000 ± 600	Myotilin Ig1Ig2^185–454 (domain or fragment, limits determined by intact protein mass spectrometry of the final product; source: E. coli, purified (GSTrap FF, TEV cleavage, IMAC and GSTrap flow-through, SEC)) MARRLLGPQNAAAVFQAQDDSGAQDSQQHNSEHARLQVPTSQVRSRSTSRGDVNDQDAIQEKFYPPRFIQVPENMSIDEGRFCRMDFKVSGLPAPDVSWYLNGRTVQSDDLHKMIVSEKGLHSLIFEVVRASDAGAYACVAKNRAGEATFTVQLDVLAKEHKRAPMFIYKPQSKKVLEGDSVKLECQISAIPPPKLFWKRNNEMVQFNTDRISLYQDNTGRVTLLIKDVNKKDAGWYTVSAVNEAGVTTCNTRLDVTARPNQTLPAPKQL	–
–	Myotilin Ig1Ig2^220–452 (domain or fragment, human, UniProt Q9UBF9 220-452, looked up, Dimer only at high concentration; monomeric at low concentrations; source: E. coli, purified (HisTrap, HRV-3C cleavage, SEC); not shown: His tag (from the HisTrap column)) LQVPTSQVRSRSTSRGDVNDQDAIQEKFYPPRFIQVPENMSIDEGRFCRMDFKVSGLPAPDVSWYLNGRTVQSDDLHKMIVSEKGLHSLIFEVVRASDAGAYACVAKNRAGEATFTVQLDVLAKEHKRAPMFIYKPQSKKVLEGDSVKLECQISAIPPPKLFWKRNNEMVQFNTDRISLYQDNTGRVTLLIKDVNKKDAGWYTVSAVNEAGVTTCNTRLDVTARPNQTLPAPK	stoichiometry N [2]: 2
1200 ± 200	Myotilin Ig1Ig2^250–498 (domain or fragment, source: E. coli B834 (DE3), purified (HisTrap, HRV-3C cleavage, Resource S cation exchange, SEC); not shown: His tag (from the HisTrap column)) PRFIQVPENMSIDEGRFCRMDFKVSGLPAPDVSWYLNGRTVQSDDLHKMIVSEKGLHSLIFEVVRASDAGAYACVAKNRAGEATFTVQLDVLAKEHKRAPMFIYKPQSKKVLEGDSVKLECQISAIPPPKLFWKRNNEMVQFNTDRISLYQDNTGRVTLLIKDVNKKDAGWYTVSAVNEAGVTTCNTRLDVTARPNQTLPAPKQLRVRPTFSKYLALNGKGLNVKQAFNPEGEFQRLAAQSGLYESEEL	–
–	α-actinin-2 EF14 (ACTN2-EF14), CAMD encoding all 4 EF-hands (domain or fragment, His6-tag removed with HRV-3C protease; limits not printed (S3 Table), so taken by convention from just before EF-hand 1 (753) to the C-terminus) DAKGITQEQMNEFRASFNHFDRRKNGLMDHEDFRACLISMGYDLGEAEFARIMTLVDPNGQGTVTFQSFIDFMTRETADTDTAEQVIASFRILASDKPYILAEELRRELPPDQAQYCIKRMPAYSGPGSVPGALDYAAFSSALYGESDL	Kd [3]: 4200 ± 1200 nM
